According to patent US20250060376A1 (PLASMARKER BIOTECHNOLOGY, published 2025):
Numbering of substitutions follows the chain as printed.

T1: fragment DIR-II (last 27 amino acids of the sequence encoded by the retained intron of DIR) (human)
T1 construct: also called target fragment DIR-II
T1 peptide: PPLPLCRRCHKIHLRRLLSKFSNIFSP

T2: DNA damage-inducible transcript 4-like (DDIT4L) intron retention spliced product (DIR) protein (human)
T2 construct: 84 aa spliced product peptide; also called QDLIR; human DIR
T2 chain: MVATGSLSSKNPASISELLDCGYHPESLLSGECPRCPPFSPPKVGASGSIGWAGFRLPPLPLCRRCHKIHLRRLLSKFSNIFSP

B1: DIR antibody IR-II-1 (antibody, V domains shown)
VH: QVQLKESGAELMKPGASVKISCKATGYTFSSYWIEWVKQRPGHGLEWIGEILPGSGTTNYNDKFKGKATFTADTSSNTAYMQLSNLTSEDSAVYYCARSYDGYYVFDYWGQGTTLTVSS
VL: DIELTQSPASLAVSLGQRATISCKASQSVDYDGDSYMNWYQQKPGQPPKLLIYAASNLESGIPARFSGSGSGTDFTLNIHPVEEEDAATYYCQQSNEDPRTFGGGTKLEIK
notes: Monoclonal antibody
B2: DIR antibody IR-II-8 (antibody, V domains shown)
VH: QVQLQQSGAELMKPGASVKISCKATGYTFSNYWIEWVKQRPGHGLEWIGEILPGSGSTNYNEKFKGKATFTADTSSNTAYMQLSSLTSEDSAVYYCARSGMITTRGDYFAMDYWGQGTSVTVSS
VL: B1 VL with D34E, E97D
notes: Monoclonal antibody
B3: DIR antibody IR-II-4 (antibody, V domains shown)
VH: QVQLQQSGAELMKPGASVKISCKATGYTFSSYWIEWVKQRPGHGLEWIGEILPGSGSTNYNEKFKGKATFTADTSSNTAYMQLNSLTSEDSAVYYCARTDDGYLSYFAMDYWGQGTSVTVSS
VL: B1 VL with E3L, L4M, S7T
notes: Monoclonal antibody
B4: DIR antibody IR-II-6 (antibody, V domains shown)
VH: QVQLQQSGAELMKPGASVKISCKATGYTFSRYWIEWIKQRPGHGLEWIGEILPGSYYSTNSNEKFKGKATFTADTSSNTAYMQLSSLTSEDSAVYYCARSGVITTRGDYFAMDYWGHGTSVTVSS
VL: B1 VL with E3V, I52M
notes: Monoclonal antibody; also called detection antibody
B5: DIR antibody IR-II-9 (antibody, V domains shown)
VH: B4 VH
VL: B1 VL with D34E, N96Y, E97D, T101A
notes: Monoclonal antibody
B6: DIR antibody IR-II-7 (antibody, V domains shown)
VH: B4 VH with R31N, S61Y, G67D, M82I, V102I, H117Q
VL: B1 VL with E3V, I52M
notes: Monoclonal antibody
B7: DIR antibody IR-II-2 (antibody, V domains shown)
VH: B2 VH with Q1E, N31S, S57T, A72V, M101V, T104A, F109Y
VL: B1 VL with E3V, L4M, E59D
notes: Monoclonal antibody
B8: DIR antibody IR-II-5 (antibody, V domains shown)
VH: B2 VH with L11V, N31S, V37I, S55G, G56Y, S57N, Y60S, K63N, R105T, F109Y
VL: B1 VL with D34E, E97D
notes: Monoclonal antibody
B9: DIR antibody IR-II-3 (antibody, V domains shown)
VH: B4 VH with Q1E, R31N, S61Y, M82I, V102M, H117Q
VL: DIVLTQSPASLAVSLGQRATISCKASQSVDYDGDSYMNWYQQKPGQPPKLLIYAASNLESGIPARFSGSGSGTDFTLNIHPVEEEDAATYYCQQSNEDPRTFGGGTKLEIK
notes: Monoclonal antibody
B10: DIR antibody IR-II-10 (A2D10) (antibody, V domains shown)
VH: EVQLQQSGPELVKPGASVKISCKTSGYTFTEYTMHWVKQSHGKSLEWIGGIYPHNGGTNYNQKFKGKATLTVDKSSSTAYMELRSLTSEDSAVYYCTEDLTFDYWGQGTTLTVSS
VL: DIQMTQTTSSLSASLGDRVTISCSASQDISNYLNWYQQKPDGTVKLLIYYTSSLHSGVPSRFSGSGSGTDYSLTISNLEPEDIATYHCLQYSKLPFTFGSGTKLEIK
notes: Monoclonal antibody

Target: T1, fragment DIR-II (last 27 amino acids of …)
Assay: ELISA, DIR-II coated; mAb (1 mg/mL) diluted 1:4374k
Experimental: (§1) The binding activity of the above antibodies IR-II-1 to IR-II-10 to fragments DIR-II was detected. The method specifically comprises:
(§2) The target fragment DIR-II was coated on a 96-well plate using a coating buffer and blocked with a blocking buffer. […] Then, a secondary antibody with horseradish peroxidase (1:5k) was added and incubated at 37° C. After washing three times, an appropriate volume of TMB substrate solution was added, and the resulting mixture was incubated at 37° C. for a certain period of time, and then placed under a microplate reader to record the absorbance value of the sample at a wavelength of 450 nm.

Binder | absorbance at 450 nm
B1 | 0.0934 absorbance (450 nm)
B2 | 0.0887 absorbance (450 nm)
B3 | 0.0775 absorbance (450 nm)
B4 | 0.18 absorbance (450 nm)
B5 | 0.193 absorbance (450 nm)
B6 | 0.0867 absorbance (450 nm)
B7 | 0.115 absorbance (450 nm)
B8 | 0.0868 absorbance (450 nm)
B9 | 0.153 absorbance (450 nm)
B10 | 0.0427 absorbance (450 nm)

Target: T1, fragment DIR-II (last 27 amino acids of …)
Assay: ELISA, DIR-II coated; mAb (1 mg/mL) diluted 1:2k
Experimental: as §1, §2

Binder | absorbance at 450 nm
B1 | 3.14 absorbance (450 nm)
B2 | 3.2 absorbance (450 nm)
B3 | 3.3 absorbance (450 nm)
B4 | 3.09 absorbance (450 nm)
B5 | 3.11 absorbance (450 nm)
B6 | 3.09 absorbance (450 nm)
B7 | 3.23 absorbance (450 nm)
B8 | 3.24 absorbance (450 nm)
B9 | 3.05 absorbance (450 nm)
B10 | 2.01 absorbance (450 nm)

Target: T1, fragment DIR-II (last 27 amino acids of …)
Assay: ELISA, DIR-II coated; mAb (1 mg/mL) diluted 1:486k
Experimental: as §1, §2

Binder | absorbance at 450 nm
B1 | 0.0656 absorbance (450 nm)
B2 | 0.0864 absorbance (450 nm)
B3 | 0.0955 absorbance (450 nm)
B4 | 0.306 absorbance (450 nm)
B5 | 0.207 absorbance (450 nm)
B6 | 0.121 absorbance (450 nm)
B7 | 0.112 absorbance (450 nm)
B8 | 0.285 absorbance (450 nm)
B9 | 0.173 absorbance (450 nm)
B10 | 0.0517 absorbance (450 nm)

Target: T1, fragment DIR-II (last 27 amino acids of …)
Assay: ELISA, DIR-II coated; mAb (1 mg/mL) diluted 1:162k
Experimental: as §1, §2

Binder | absorbance at 450 nm
B1 | 0.109 absorbance (450 nm)
B2 | 0.0911 absorbance (450 nm)
B3 | 0.136 absorbance (450 nm)
B4 | 0.414 absorbance (450 nm)
B5 | 0.318 absorbance (450 nm)
B6 | 0.164 absorbance (450 nm)
B7 | 0.14 absorbance (450 nm)
B8 | 0.19 absorbance (450 nm)
B9 | 0.366 absorbance (450 nm)
B10 | 0.0517 absorbance (450 nm)

Target: T1, fragment DIR-II (last 27 amino acids of …)
Assay: ELISA, DIR-II coated; mAb (1 mg/mL) diluted 1:18k
Experimental: as §1, §2

Binder | absorbance at 450 nm
B1 | 0.818 absorbance (450 nm)
B2 | 0.257 absorbance (450 nm)
B3 | 0.555 absorbance (450 nm)
B4 | 2.01 absorbance (450 nm)
B5 | 1.87 absorbance (450 nm)
B6 | 1.16 absorbance (450 nm)
B7 | 0.823 absorbance (450 nm)
B8 | 0.387 absorbance (450 nm)
B9 | 1.27 absorbance (450 nm)
B10 | 0.142 absorbance (450 nm)

Target: T2, DNA damage-inducible transcript 4-like …
Assay: sandwich ELISA, capture antibody GL Biochem AB009458, detection antibody IR-II-6 (method of paragraph 444)
Experimental: Methods for collecting venous blood and obtaining plasma: The blood was collected from the vein in cubital fossa of a patient into an EDTA vacuum tube by using the vacuum blood collection technique, and the tube was immediately inverted gently 8 times to fully mix the blood and an anticoagulant. Then, the tube was transported to the laboratory on ice, centrifuged for 10 min at 1500 g at 4° C., and the supernatant was aspirated, aliquoted, and stored at −80° C.
ELISA method for plasma: The plasma sample was diluted at 1:1 with 1× diluent (OBT1998G, purchased from Bio-Rad); then, 100 μl of a blocking solution was added using a pipette for blockage for 1 h at 37° C.; then, 100 μl of a proportionally diluted standard and diluted plasma were added into plate wells coated with capture antibodies (GL Biochem, AB009458) by using the pipette, the tip of which was changed for each sampling; the resulting mixture was incubated for 1.5 h at 37° C.; the liquid in each well was removed, and the well was washed 3 times with 100 μl 1× washing solution (BUF031C, purchased from Bio-Rad); 100 μl of detection antibody (i. e., the DIR antibody IR-II-6, of which a VH amino acid sequence was as set forth in SEQ ID NO. 58, and of which a VL amino acid sequence was as set forth in SEQ ID NO. […]

Binder | binding result
B4 | binds

Target: T1, fragment DIR-II (last 27 amino acids of …)
Assay: ELISA, DIR-II coated; mAb (1 mg/mL) diluted 1:6k
Experimental: as §1, §2

Binder | absorbance at 450 nm
B1 | 2.98 absorbance (450 nm)
B2 | 0.87 absorbance (450 nm)
B3 | 1.77 absorbance (450 nm)
B4 | 3.18 absorbance (450 nm)
B5 | 3.27 absorbance (450 nm)
B6 | 2.98 absorbance (450 nm)
B7 | 1.62 absorbance (450 nm)
B8 | 1.31 absorbance (450 nm)
B9 | 3.05 absorbance (450 nm)
B10 | 0.472 absorbance (450 nm)

Target: T1, fragment DIR-II (last 27 amino acids of …)
Assay: ELISA, DIR-II coated; mAb (1 mg/mL) diluted 1:1458k
Experimental: as §1, §2

Binder | absorbance at 450 nm
B1 | 0.0653 absorbance (450 nm)
B2 | 0.0906 absorbance (450 nm)
B3 | 0.0751 absorbance (450 nm)
B4 | 0.2 absorbance (450 nm)
B5 | 0.169 absorbance (450 nm)
B6 | 0.103 absorbance (450 nm)
B7 | 0.0839 absorbance (450 nm)
B8 | 0.0911 absorbance (450 nm)
B9 | 0.166 absorbance (450 nm)
B10 | 0.0501 absorbance (450 nm)

Target: T1, fragment DIR-II (last 27 amino acids of …)
Assay: ELISA, DIR-II coated; mAb (1 mg/mL) diluted 1:54k
Experimental: as §1, §2

Binder | absorbance at 450 nm
B1 | 0.264 absorbance (450 nm)
B2 | 0.138 absorbance (450 nm)
B3 | 0.186 absorbance (450 nm)
B4 | 0.78 absorbance (450 nm)
B5 | 0.622 absorbance (450 nm)
B6 | 0.35 absorbance (450 nm)
B7 | 0.193 absorbance (450 nm)
B8 | 0.159 absorbance (450 nm)
B9 | 0.4 absorbance (450 nm)
B10 | 0.0783 absorbance (450 nm)
